Measured values taken from patent publication US11473073B2, “Aminopeptidases for protein hydrolyzates” (DUPONT NUTRITION BIOSCIENCES APS, priority 2015, dated 2022).

How the values were obtained:
Assay type in all cases: biochemical
gluten [1] = test: Glutamic acid liberation in gluten hydrolyses (pH and temperature optimum)
Protocol: The liberation of glutamic acid is an important quality parameter in vegetable protein hydrolyses such as soy or gluten hydrolyses. The liberated glutamic acid can be perceived as the so-called “umami-flavor”. In order to determine the effect of the initially applied pH in gluten hydrolyses in terms of glutamic acid and glutamine liberation, the initial pH of a gluten hydrolyses was adjusted just after the liquefaction of the gluten after 15-30 min with 1 M HCl. Gluten was treated with Glutaminase (Amano, Japan). In addition, gluten was treated with FoodPro Alkaline Protease, FoodPro PNL as well as PepN 2 (Neosartorya fischeri). After 20 hr, the hydrolysis was terminated employing ultrafiltration (10 kDa cut-off, Sartorius Stedium Biotech, Göttingen, Germany). The permeate was applied for the enzymatic glutamic acid analyses (enzymatic L-glutamic acid analysis kit, Roche, Mannheim, Germany).
In order to determine the effect of the applied temperature during the gluten hydrolyses in terms of glutamic acid and glutamine liberation, the initial pH was adjusted with 1 M HCl to pH 7.0 just after the liquefaction of the gluten suspension after 15-30 min. Gluten was combined with Glutaminase (Amano, Japan). In addition, gluten was combined FOODPRO® Alkaline Protease, FOODPRO® PNL as well as PepN 2 (Neosartorya fischeri). […]

[2] = tested on: whey protein isolate (WPI); test: Degree of hydrolysis of WPI with endopeptidases plus PepN; details: for Degree of hydrolysis: 50° C., 18 hr
Protocol: Enzyme activities of PepN 1 Lactobacillus helveticus ATCC® 12046, PepN 1 Aspergillus oryzae and from PepN 2 from Aspergillus clavatus (TRI035) were determined according to Stressler, Eisele et al. (2013, infra). PepN 1 from L. helveticus was expressed and purified as described by Stressler, Eisele et al. (2013, infra).
The PepN 1 and 2 aminopeptidases were standardized to the activity range of 2.5-200 nkat*mL^−1. For protein hydrolyses, 1% (w/wWPI) FOODPRO® Alkaline Protease (DuPont, Brabrand, Denmark) and 1% (w/wWPI) FOODPRO® PNL (DuPont, Brabrand, Denmark) were added to the whey protein isolate suspension (WPI; LACPRODAN® 9224, Arla Ingredients, Viby, Denmark) with an initial pH of 7.0. Following the endopeptidases addition, the WPI was mixed and 200 μL were transferred to each well of a 96-well microtiter plate. The hydrolysis was conducted at 50° C. without pH control and terminated after 18 hr by addition of 20 μL of 2 M TCA. Prior to the determination of the DH (Nielsen, Petersen et al., 2001, infra), all samples were filtered 0.22 μm.

soy = test: Degree of hydrolysis in soy hydrolyses with and without 185 mM NaCl; set-up: Degree of hydrolysis: unit not given here; details: for Degree of hydrolysis: SOY, 50° C., 18 hr
Protocol: (§1) Sodium chloride is frequently applied in the food industry to reduce the microbial contamination risk in protein hydrolyses. Pre-hydrolysed 10% (w/w) soy (SUPRO® 760, DuPont, Brabrand, Denmark) and gluten (Sigma-Aldrich, Schnelldorf, Germany) was prepared by addition of 1% (w/wprotein) FOODPRO® Alkaline Protease (DuPont, Brabrand, Denmark) and 1% (w/wprotein) FOODPRO® PNL (DuPont, Brabrand, Denmark). The hydrolyses were performed at 50° C. at pH 7.0 (without pH control) for 18 hr (heat inactivation after 18 hr; 90° C.; 10 min). Subsequently, the hydrolyses were divided in sodium chloride containing (185 mM) and non-salt containing hydrolyses. 150 μL of each pre-hydrolysed protein suspension was combined with differently standardized Aspergillus clavatus PepN 2 as indicated in Table 3. The hydrolyses were conducted at 50° C. without pH control and terminated after 18 hr by addition of 20 μL of 2 M TCA. Prior to the determination of the DH (Nielsen, Petersen et al. 2001, infra), all samples were filtered 0.22 μm.

gluten [3] = test: Degree of hydrolysis in gluten hydrolyses with and without 185 mM NaCl; set-up: Degree of hydrolysis: unit not given here; details: for Degree of hydrolysis: Gluten, 50° C., 18 hr
Protocol: as §1

[4] = 185 mM NaCl, protein concentration 0.2 mg/mL
[5] = 185 mM NaCl, protein concentration 0.3 mg/mL
[6] = 185 mM NaCl, protein concentration 0.4 mg/mL
[7] = 185 mM NaCl, protein concentration 0.5 mg/mL
[8] = reference (no salt), protein concentration 0.2 mg/mL
[9] = reference (no salt), protein concentration 0.3 mg/mL
[10] = reference (no salt), protein concentration 0.4 mg/mL
[11] = reference (no salt), protein concentration 0.5 mg/mL

B1: TRI031: fungal aminopeptidase type-2 (pepN_2), NCBI XP_001258675 from Neosartorya fischeri NRRL 181, expressed in Trichoderma reesei (protein)
chain: MQTFGAFLVSFLAASGLAAANGPGWDWKPPVHPKVLPQMIHLWDLMHGAQKLEDFAYAYPERNRVFGGPAHEDTVNYLYRELKKTGYYDVYKQPQVHQWTRADQALTVDGKSYVATTMTYSPSVNVTAPLAVVNNLGCVESDYPADLKGKIALVSRGECPFATKSVLSAKAGAAAALVYNNIEGSMAGTLGGPTSELGPYAPIAGISLADGQALIQMIQAGTVTANLWIDSKVENRTTYNVIAQTKGGDPNNVVALGGHTDSVEAGPGINDDGSGIISNLVVAKALTRFSVKNAVRFCFWTAEEFGLLGSSYYVNSLNATEKAKIRLYLNFDMIASPNYALMIYDGDGSAFNLTGPAGSAQIERLFEDYYKSIRKPFVPTEFNGRSDYEAFILNGIPAGGIFTGAEAIKTEEQAKLFGGQAGVALDANYHAKGDNMTNLNREAFLINSKATAFAVATYANSLDSIPSRNMSTVVKRSQLEQAKKSTPHTHTGGTGCYKDRVEQ
modifications: Synthetic peptide with leader sequence
notes: fungal aminopeptidase type-2 (pepN_2), NCBI XP_001258675 from Neosartorya fischeri NRRL 181, expressed in Trichoderma reesei
Gluten [1]; gluten hydrolysis 20 h, initial pH 7.0, range 40-60° C., FIG. 3
  temperature at which PepN 2 performed most efficient (glutamic acid liberation): 60 °C
Gluten [1]; gluten hydrolysis 20 hr with Glutaminase, FoodPro Alkaline Protease, FoodPro PNL, compared to pH 6.0, FIG. 2
  pH range in which PepN 2 performed more efficient (glutamic acid liberation): 7.0-9.0

B2: TRI035: fungal aminopeptidase type-2 (pepN_2), NCBI XP_001273779 from Aspergillus clavatus NRRL 1 (protein)
chain: MQTFGAFLVSFLAASGLAAANAPGGPGGHGRKLPVNPKTFPNEIRLKDLLHGSQKLEDFAYAYPERNRVFGGQAHLDTVNYLYRELKKTGYYDVYKQPQVHQWTRADQSLTLGGDSIQASTMTYSPSVNVTAPLSLVSKLGCAEGDYSADVKGKIALVSRGECSFAQKSVLSAKAGAVATIVYNNVDGSLAGTLGGATSELGPYSPIIGITLAAGQDLVARLQAAPTEVSLWIDSKVENRTTYNVIAQTKGGDPNNVVALGGHTDSVENGPGINDDGSGVISNLVVAKALTRYSVKNAVRFCFWTAEEFGLLGSNYYVDNLSPAELAKIRLYLNFDMIASPNYALMIYDGDGSAFNLTGPPGSAQIESLFENYYKSIKQGFVPTAFDGRSDYEGFILKGIPAGGVFTGAESLKTEEQARLFGGQAGVALDANYHAKGDNMTNLNHKAFLINSRATAFAVATYANNLSSIPPRNATVVKRESMKWTKREEPHTHGADTGCFASRVKE
modifications: Synthetic peptide with leader sequence
[2]; PepN dosage 2.5 nkat/mL in stock solution
  Degree of hydrolysis: 15%
[2]; PepN dosage 5 nkat/mL in stock solution
  Degree of hydrolysis: 17%
[2]; PepN dosage 10 nkat/mL in stock solution
  Degree of hydrolysis: 17%
[2]; PepN dosage 25 nkat/mL in stock solution
  Degree of hydrolysis: 20%
[2]; PepN dosage 50 nkat/mL in stock solution
  Degree of hydrolysis: 24%
[2]; PepN dosage 75 nkat/mL in stock solution
  Degree of hydrolysis: 26%
[2]; PepN dosage 100 nkat/mL in stock solution
  Degree of hydrolysis: 35%
[2]; PepN dosage 200 nkat/mL in stock solution
  Degree of hydrolysis: 36%
[2]; at the two highest dosages
  higher DH than the PepN 1 aminopeptidases: at least 25%
soy; [4]
  Degree of hydrolysis: 10
soy; [5]
  Degree of hydrolysis: 11
soy; [6]
  Degree of hydrolysis: 11
soy; [7]
  Degree of hydrolysis: 12
soy; [8]
  Degree of hydrolysis: 11
soy; [9]
  Degree of hydrolysis: 12
soy; [10]
  Degree of hydrolysis: 12
soy; [11]
  Degree of hydrolysis: 12
soy; soy hydrolyses
  influence of 185 mM NaCl on the determined degree of hydrolysis: no influence
Gluten [3]; 185 mM NaCl, protein concentration 0.1 mg/mL
  Degree of hydrolysis: 14
Gluten [3]; [4]
  Degree of hydrolysis: 15
Gluten [3]; 185 mM NaCl, protein concentration 0.25 mg/mL
  Degree of hydrolysis: 15
Gluten [3]; [5]
  Degree of hydrolysis: 16
Gluten [3]; [6]
  Degree of hydrolysis: 17
Gluten [3]; [7]
  Degree of hydrolysis: 18
Gluten [3]; reference (no salt), protein concentration 0.1 mg/mL
  Degree of hydrolysis: 14
Gluten [3]; [8]
  Degree of hydrolysis: 16
Gluten [3]; reference (no salt), protein concentration 0.25 mg/mL
  Degree of hydrolysis: 17
Gluten [3]; [9]
  Degree of hydrolysis: 16
Gluten [3]; [10]
  Degree of hydrolysis: 17
Gluten [3]; [11]
  Degree of hydrolysis: 18
Gluten [3]; gluten hydrolyses
  influence of 185 mM NaCl on the determined degree of hydrolysis: no influence
